The assay addresses GST-human NOGO-A56 (human) [GST: P08515]. The assay can be described thus: SPR (Biacore 3000), GST-human NOGO-A56 on CM5, antibody as analyte; single experiment.

Chain of GST-human NOGO-A56 (human) [GST: P08515] (P08515 1-218, tags or fused parts left off): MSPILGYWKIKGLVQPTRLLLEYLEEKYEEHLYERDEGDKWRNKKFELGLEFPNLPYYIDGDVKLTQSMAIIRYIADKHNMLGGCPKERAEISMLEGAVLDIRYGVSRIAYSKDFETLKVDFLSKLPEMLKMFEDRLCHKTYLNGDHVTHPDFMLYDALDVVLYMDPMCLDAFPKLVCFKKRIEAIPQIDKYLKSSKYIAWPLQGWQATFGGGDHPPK

The term Kd denotes the concentration at which binding is half-saturated. Read a low Kd as higher affinity. The term koff denotes the rate constant with which the complex falls apart. Read a high koff as fast dissociation. What is called kon is the rate constant with which the complex forms. The low end stands for slower complex formation, the high end for faster complex formation. The substance 11C7 (chimeric version) (antibody) gave a Kd of 0.057 nM, a koff of 8.25e-05 s⁻¹ and an on-rate constant (kon) of 1.44e+06 M⁻¹ s⁻¹.
